Experimental data as given in publication PMC3795262.

Target: Full-length recombinant human TSG-6 (secreted product of tumor necrosis factor-stimulated gene-6) (human) (UniProt P98066)
Experiment: not stated; preliminary results, data not shown

Chain of UniProt P98066 (P98066 18-277): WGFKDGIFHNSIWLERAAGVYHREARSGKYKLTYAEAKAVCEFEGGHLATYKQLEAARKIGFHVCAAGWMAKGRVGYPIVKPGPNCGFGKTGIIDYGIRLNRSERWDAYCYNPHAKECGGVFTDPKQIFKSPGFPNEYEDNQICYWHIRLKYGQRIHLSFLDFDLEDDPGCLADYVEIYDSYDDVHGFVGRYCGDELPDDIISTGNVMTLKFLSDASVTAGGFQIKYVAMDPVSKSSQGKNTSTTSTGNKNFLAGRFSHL

Q: “Inter-α-inhibitor (from UniProt P19827 35-672; P19823 55-702) (complex)” was tested. Which Kd did it give?
A: 10 nM
